Laboratory results from the supplement of paper PMC10126150.
± gives the standard deviation of the averaged measurements.

The sequences below were run on ATP (assay: switch fluorescence ratio, 500 uM ATP over buffer (Cy3 cluster intensity, sum of 5 cycles each) (fold (ratio)); higher = stronger signal-on switching upon ATP binding; sequences stand for … in TCGTCGGCAGCGTCAGATGTGTATAAGAGACAGTTTTTTTTTTTTTTTTTTTTTTTTT…TC). Settings: aptamer strand: ATP DNA aptamer (quencher-CACCTGGGGGAGTATTGCGGAGGAAGG + anchor), 100 nM annealed; ATP concentration: 500 uM.
In short: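 Cy3-labelled switching-strand clusters on a modified Illumina MiSeq flow-cell were annealed to 100 nM quencher-labelled ATP aptamer and imaged first in selection buffer, then after 15 min with 500 uM ATP at 22 °C. NaOH stripping and re-annealing separated each of five buffer/ATP cycles, and clusters outside 100-1000 RFU were excluded. The fluorescence ratio sums target-cycle Cy3 intensity over buffer-cycle Cy3 intensity per cluster and averages it per switch-domain sequence.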
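Note: ATP exposure 15 min at 22 °C before imaging.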

| Sequence | switch fluorescence ratio |
| --- | --- |
| AGATACGGTG | 0.983 ± 0.044 |
| AGATAGAGTG | 0.996 ± 0.02 |
| AGATAGGGGA | 1.01 ± 0.025 |
| AGATAGGGGT | 1.021 ± 0.008 |
| AGATAGGTGT | 1.079 ± 0.003 |
| AGATATGGCT | 0.979 ± 0.038 |
| AGATATTACG | 1.03 ± 0.037 |
| AGATATTATT | 0.9771 ± 0.0015 |
| AGATCCCGCG | 1.03 ± 0.032 |
| AGATCTGGAG | 0.9982 ± 0.0069 |
| AGATGAGATA | 1.005 ± 0.0037 |
| AGATGAGGCG | 1 ± 0.068 |
| AGATGCAGTA | 1.01 ± 0.028 |
| AGATGGGAAT | 1.04 ± 0.0028 |
| AGATGGGTGG | 1.01 ± 0.025 |
| AGATGGGTGT | 1.04 ± 0.041 |
| AGATGGGTTT | 1.01 ± 0.044 |
| AGATGTGGGA | 1 ± 0.013 |
| AGATGTGTGG | 0.989 ± 0.053 |
| AGATTAGTAT | 1.02 ± 0.056 |
| AGATTATGTT | 1.01 ± 0.029 |
| AGATTCACTT | 1.01 ± 0.013 |
| AGATTCAGAA | 0.947 ± 0.037 |
| AGATTCCGCT | 1.108 ± 0.011 |
| AGATTCGGTC | 1 ± 0.018 |

| Sequence | switch fluorescence ratio |
| --- | --- |
| AGATTGGAGG | 0.957 ± 0.028 |
| AGATTTAGGG | 0.986 ± 0.017 |
| AGATTTATCG | 0.9781 ± 0.0027 |
| AGATTTCATA | 0.985 ± 0.02 |
| AGATTTGGGC | 1.02 ± 0.031 |
| AGATTTTTTG | 0.9926 ± 0.0073 |
| AGCAACATTG | 1.01 ± 0.06 |
| AGCAAGGGGA | 1.07 ± 0.058 |
| AGCAATTGCT | 1.05 ± 0.023 |
| AGCACGCTGG | 1.029 ± 0.0042 |
| AGCACGTTCT | 0.993 ± 0.1 |
| AGCACTTTTC | 1.0192 ± 0.00082 |
| AGCAGAAATC | 1.07 ± 0.039 |
| AGCAGACGGC | 1.03 ± 0.024 |
| AGCAGGGGTG | 1.09 ± 0.013 |
| AGCAGTGACT | 1.13 ± 0.036 |
| AGCAGTGTGC | 0.9981 ± 0.0027 |
| AGCATACGTT | 1.16 ± 0.051 |
| AGCATATCGT | 1.04 ± 0.033 |
| AGCATATGAA | 1.02 ± 0.071 |
| AGCATGGTTT | 1.02 ± 0.029 |
| AGCATGTGGC | 0.991 ± 0.016 |
| AGCATTACCG | 1.165 ± 0.0045 |
| AGCATTATCT | 1.09 ± 0.03 |
| AGCATTTATA | 0.981 ± 0.016 |

| Sequence | switch fluorescence ratio |
| --- | --- |
| AGCATTTTTG | 1.024 ± 0.0035 |
| AGCCAGAGAC | 1.07 ± 0.036 |
| AGCCAGATTC | 0.975 ± 0.036 |
| AGCCAGGATT | 0.9722 ± 0.0083 |
| AGCCATTATT | 0.976 ± 0.02 |
| AGCCCCGGCT | 0.967 ± 0.045 |
| AGCCCGAGGG | 0.989 ± 0.065 |
| AGCCCGTTTG | 0.964 ± 0.053 |
| AGCCGCCGGG | 1.04 ± 0.013 |
| AGCCGTGATG | 1.06 ± 0.048 |
| AGCCTTAATT | 1 ± 0.025 |
| AGCCTTACGT | 1.115 ± 0.0039 |
| AGCCTTTACA | 0.994 ± 0.011 |
| AGCGAATTTT | 0.999 ± 0.017 |
| AGCGAGGGGA | 1.04 ± 0.02 |
| AGCGAGTGGC | 0.991 ± 0.03 |
| AGCGATAGTA | 1.07 ± 0.019 |
| AGCGATGCGG | 0.9867 ± 0.0023 |
| AGCGATTATA | 0.991 ± 0.0037 |
| AGCGATTTTT | 1.01 ± 0.053 |
| AGCGCAATGA | 3 ± 0.32 |
| AGCGCATGTG | 0.996 ± 0.013 |
| AGCGGAACCC | 1.03 ± 0.023 |
| AGCGGATTGT | 1 ± 0.02 |
| AGCGGCATGT | 0.978 ± 0.077 |

| Sequence | switch fluorescence ratio |
| --- | --- |
| AGCGGCCTG | 1.01 ± 0.056 |
| AGCGGGGGAT | 1.01 ± 0.027 |
| AGCGGGGGGT | 1.03 ± 0.033 |
| AGCGGGGGTA | 1.01 ± 0.034 |
| AGCGGGGTTC | 1.023 ± 0.0049 |
| AGCGGGTAGA | 0.986 ± 0.02 |
| AGCGGGTTAC | 1.09 ± 0.06 |
| AGCGGGTTCG | 1 ± 0.054 |
| AGCGGTATGC | 0.9804 ± 0.0073 |
| AGCGGTTATT | 1.004 ± 0.0044 |
| AGCGGTTTTC | 0.994 ± 0.033 |
| AGCGTAGAGC | 1.03 ± 0.04 |
| AGCGTCATGC | 1.04 ± 0.048 |
| AGCGTCGTTC | 1.03 ± 0.023 |
| AGCGTTTCCG | 0.99 ± 0.028 |
| AGCGTTTCGC | 0.996 ± 0.013 |
| AGCTACGTCG | 0.942 ± 0.034 |
| AGCTACGTTT | 0.9963 ± 0.0053 |
| AGCTAGCGAT | 1.02 ± 0.034 |
| AGCTAGTCGC | 1.01 ± 0.027 |
| AGCTATTAAG | 0.9947 ± 0.0065 |
| AGCTGAAGTT | 0.989 ± 0.036 |
| AGCTGACGCT | 1.02 ± 0.025 |
| AGCTGACTGC | 1.01 ± 0.025 |
| AGCTGATTGC | 1 ± 0.02 |

| Sequence | switch fluorescence ratio |
| --- | --- |
| AGCTGCGACG | 0.992 ± 0.044 |
| AGCTGGGAAG | 0.982 ± 0.021 |
| AGCTGGGGGA | 1.05 ± 0.015 |
| AGCTGGTGGC | 1.01 ± 0.078 |
| AGCTGTGACC | 1 ± 0.012 |
| AGCTGTTTC | 1 ± 0.018 |
| AGCTTAAATT | 0.987 ± 0.018 |
| AGCTTAGTTT | 0.975 ± 0.028 |
| AGCTTCAAAT | 1 ± 0.017 |
| AGCTTCATTC | 1.06 ± 0.057 |
| AGCTTCTAAA | 0.976 ± 0.022 |
| AGCTTGGATA | 1.017 ± 0.01 |
| AGCTTTATGT | 1.02 ± 0.04 |
| AGCTTTTTGA | 0.966 ± 0.025 |
| AGGAAAAAGC | 1.02 ± 0.028 |
| AGGAAACGGG | 0.978 ± 0.018 |
| AGGAAATTAT | 1.01 ± 0.029 |
| AGGAACGGGT | 0.9838 ± 0.0027 |
| AGGAAGAAAG | 1.042 ± 0.0089 |
| AGGAAGTCTG | 1.03 ± 0.035 |
| AGGAAGTGGG | 0.959 ± 0.028 |
| AGGAATAGCG | 1.021 ± 0.0061 |
| AGGAATCCGG | 1.03 ± 0.026 |
| AGGAATGGTC | 1.02 ± 0.051 |
| AGGAATGTTT | 0.985 ± 0.0099 |

| Sequence | switch fluorescence ratio |
| --- | --- |
| AGGAATTACG | 1.05 ± 0.041 |
| AGGAATTGAA | 0.982 ± 0.028 |
| AGGACCATGT | 1.01 ± 0.02 |
| AGGACGGGA | 1.03 ± 0.035 |
| AGGACGGGAT | 1.06 ± 0.056 |
| AGGACGTCCA | 0.989 ± 0.02 |
| AGGACTGGGG | 1.01 ± 0.037 |
| AGGACTGTGT | 1.02 ± 0.04 |
| AGGACTTGTC | 0.951 ± 0.01 |
| AGGAGAGACC | 0.9848 ± 0.0029 |
| AGGAGCGGTA | 1.1 ± 0.12 |
| AGGAGCGGTT | 1.02 ± 0.061 |
| AGGAGCTTGA | 1.03 ± 0.018 |
| AGGAGGAGGA | 1.07 ± 0.065 |
| AGGAGGAGGC | 0.789 ± 0.23 |
| AGGAGGCGAG | 0.9905 ± 0.0088 |
| AGGAGGGATG | 0.985 ± 0.022 |
| AGGAGGGGGG | 1.01 ± 0.039 |
| AGGAGGGGGT | 0.991 ± 0.033 |
| AGGAGGTTAT | 1.01 ± 0.013 |
| AGGAGTACGT | 0.988 ± 0.013 |
| AGGAGTACTT | 1.02 ± 0.019 |
| AGGAGTGGTA | 0.999 ± 0.013 |
| AGGAGTTTAG | 0.9867 ± 0.0093 |
| AGGATAACCC | 1.018 ± 0.0064 |

| Sequence | switch fluorescence ratio |
| --- | --- |
| AGGATAGTTG | 0.982 ± 0.038 |
| AGGATCAACG | 0.984 ± 0.034 |
| AGGATCGGTA | 0.987 ± 0.022 |
| AGGATCTTGT | 0.9943 ± 0.0016 |
| AGGATGCAGA | 1.01 ± 0.024 |
| AGGATGGGG | 0.9741 ± 0.0069 |
| AGGATGGGTG | 0.991 ± 0.021 |
| AGGATGGTTG | 1 ± 0.021 |
| AGGATGTGCT | 0.9655 ± 0.006 |
| AGGATTATGT | 1.01 ± 0.035 |
| AGGATTGGGT | 0.99 ± 0.017 |
| AGGATTTGAG | 1 ± 0.013 |
| AGGATTTGGT | 0.984 ± 0.031 |
| AGGATTTTAG | 1.002 ± 0.0049 |
| AGGATTTTTG | 1.02 ± 0.021 |
| AGGCAAAGCA | 1.05 ± 0.073 |
| AGGCAAAGGC | 1.06 ± 0.036 |
| AGGCAGACCG | 1.03 ± 0.07 |
| AGGCAGATGG | 0.998 ± 0.021 |
| AGGCAGTGGG | 0.998 ± 0.028 |
| AGGCATCAAC | 1.02 ± 0.013 |
| AGGCATGCTG | 0.98 ± 0.062 |
| AGGCCCCCGA | 1.02 ± 0.066 |
| AGGCCGAGTC | 1.02 ± 0.054 |
| AGGCCGGGTG | 1.35 ± 0.052 |

| Sequence | switch fluorescence ratio |
| --- | --- |
| AGGCCGTGGC | 0.968 ± 0.035 |
| AGGCCTAACG | 0.995 ± 0.01 |
| AGGCCTCGCA | 1.03 ± 0.039 |
| AGGCCTGGG | 1 ± 0.016 |
| AGGCCTTCGA | 1.003 ± 0.0083 |
| AGGCGCAATT | 1.81 ± 0.94 |
| AGGCGCAGGG | 0.9982 ± 0.0089 |
| AGGCGCGCGG | 0.9507 ± 0.0057 |
| AGGCGCTAT | 1.04 ± 0.021 |
| AGGCGGATGG | 0.9853 ± 0.0062 |
| AGGCGGCAGC | 0.982 ± 0.02 |
| AGGCGGCCTG | 0.982 ± 0.016 |
| AGGCGGCTTC | 1.03 ± 0.014 |
| AGGCGGGGTA | 0.9847 ± 0.0089 |
| AGGCGGTGCG | 1.02 ± 0.03 |
| AGGCGGTGGC | 1.02 ± 0.11 |
| AGGCGTGAGG | 1.01 ± 0.049 |
| AGGCTAAAG | 0.974 ± 0.01 |
| AGGCTATCCC | 0.992 ± 0.033 |
| AGGCTCACAA | 1.07 ± 0.03 |
| AGGCTCCGAG | 1.03 ± 0.011 |
| AGGCTCCTCG | 1.039 ± 4.4e-05 |
| AGGCTCTTTG | 1.01 ± 0.04 |
| AGGCTGAGCG | 1.01 ± 0.022 |
| AGGCTGTTCT | 0.991 ± 0.059 |
